We go through two molecules from article PMC8621594, “Physicochemical and Biological Characterization of rhC1INH Expressed in CHO Cells” (Pharmaceuticals, 2021).

In one test the target is human C1s (human). Put plainly: cell-based or functional assay.
Test [1] addresses T1, blood coagulation factor XIIa (human, UniProt P00748 20-615).
T1 sequence (looked up): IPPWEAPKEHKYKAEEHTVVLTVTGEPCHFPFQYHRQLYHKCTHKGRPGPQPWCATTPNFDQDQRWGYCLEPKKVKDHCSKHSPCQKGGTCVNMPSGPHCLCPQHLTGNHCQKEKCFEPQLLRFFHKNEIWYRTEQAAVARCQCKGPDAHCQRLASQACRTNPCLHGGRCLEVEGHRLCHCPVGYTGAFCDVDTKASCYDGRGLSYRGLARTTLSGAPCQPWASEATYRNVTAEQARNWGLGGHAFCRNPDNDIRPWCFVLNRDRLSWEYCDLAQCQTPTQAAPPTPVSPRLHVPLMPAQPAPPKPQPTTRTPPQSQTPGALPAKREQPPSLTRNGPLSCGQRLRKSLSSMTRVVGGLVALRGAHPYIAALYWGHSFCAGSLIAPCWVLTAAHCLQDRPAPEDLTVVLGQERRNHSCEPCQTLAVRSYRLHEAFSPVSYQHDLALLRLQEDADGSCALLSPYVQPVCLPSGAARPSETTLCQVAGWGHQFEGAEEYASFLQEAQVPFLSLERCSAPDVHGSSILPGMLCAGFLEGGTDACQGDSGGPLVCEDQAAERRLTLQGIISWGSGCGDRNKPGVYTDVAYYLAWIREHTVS
As to the kind of experiment: cell-based or functional assay.

The target in test [2] is T1, blood coagulation factor XIIa. As to the kind of experiment: BLI; Octet QKe; each protease diluted to 10 ug/mL in 10 mM sodium acetate pH 6.0 and covalently immobilised on amino reactive sensors (AR2G); C1 inhibitor at 11, 5.5 and 2.8 uM in triplicates; 24 °C, 250 rpm; only the association rate constant calculated because complex formation is irreversible. Conditions: both partners purified.

B1: Ruconest^® (conestat alfa), human recombinant C1 inhibitor purified from the milk of transgenic rabbits (natural protein, UniProt P05155 23-500, looked up)
chain: NPNATSSSSQDPESLQDRGEGKVATTVISKMLFVEPILEVSSLPTTNSTTNSATKITANTTDEPTTQPTTEPTTQPTIQPTQPTTQLPTDSPTQPTTGSFCPGPVTLCSDLESHSTEAVLGDALVDFSLKLYHAFSAMKKVETNMAFSPFSIASLLTQVLLGAGENTKTNLESILSYPKDFTCVHQALKGFTTKGVTSVSQIFHSPDLAIRDTFVNASRTLYSSSPRVLSNNSDANLELINTWVAKNTNNKISRLLDSLPSDTRLVLLNAIYLSAKWKTTFDPKKTRMEPFHFKNSVIKVPMMNSKKYPVAHFIDQTLKAKVGQLQLSHNLSLVILVPQNLKHRLEDMEQALSPSVFKAIMEKLEMSKFQPTLLTLPRIKVTTSQDMLSIMEKLEFFDFSYDLNLCGLTEDPDLQVSAMQHQTVLELTETGVEAAAASAISVARTLLVFEVQQPFLFVLWDQQHKFPVFMGRVYDPRA
modifications: glycosylated; 8.0 ± 0.6 mol Neu5Ac/mol protein
For the molecule B1, the “IC50 of the inhibition of human serum complement (lysis of chicken erythrocytes), Ruconest® 0.0076 to 15.6 IU/mL; printed as activity against human C1-esterase in the blood serum” value in the test with human C1s was found to be 1.66 IU/mL.

B2: recombinant human C1 esterase inhibitor (rhC1INH) from Chinese hamster ovary (CHO) cells (natural protein, UniProt P05155 23-500, looked up)
chain: NPNATSSSSQDPESLQDRGEGKVATTVISKMLFVEPILEVSSLPTTNSTTNSATKITANTTDEPTTQPTTEPTTQPTIQPTQPTTQLPTDSPTQPTTGSFCPGPVTLCSDLESHSTEAVLGDALVDFSLKLYHAFSAMKKVETNMAFSPFSIASLLTQVLLGAGENTKTNLESILSYPKDFTCVHQALKGFTTKGVTSVSQIFHSPDLAIRDTFVNASRTLYSSSPRVLSNNSDANLELINTWVAKNTNNKISRLLDSLPSDTRLVLLNAIYLSAKWKTTFDPKKTRMEPFHFKNSVIKVPMMNSKKYPVAHFIDQTLKAKVGQLQLSHNLSLVILVPQNLKHRLEDMEQALSPSVFKAIMEKLEMSKFQPTLLTLPRIKVTTSQDMLSIMEKLEFFDFSYDLNLCGLTEDPDLQVSAMQHQTVLELTETGVEAAAASAISVARTLLVFEVQQPFLFVLWDQQHKFPVFMGRVYDPRA
modifications: heavily glycosylated: six occupied N- and more than 12 O- sites of glycosylation; about 20 mol Neu5Ac/mol protein
notes: mass of the totally deglycosylated protein 52,846 Da (theoretical 52,849 Da); By LC-MS 71% of the deglycosylated product is the full structure; source: genetically engineered CHO cells, purified
For the molecule B2, the “inhibitory activity toward factor XIIa, chromogenic substrate S-2302, inhibitor 18 to 0.14 µM, relative to Berinert® (100%)” value in test [1] was 115%. Also, the kon – broadly, the second-order rate constant of association – in test [2] was 3260 M⁻¹ s⁻¹.
